Square brackets hold non-standard residues; d marks the D form. Ends that are not written are not given here. Arg(Me2a) = CN(C)C(=N)NCCC[C@H](N)C(=O)O; Lys(Me3) = C[N+](C)(C)CCCC[C@H](N)C(=O)O; Arg(Me2s) = CN=C(NC)NCCC[C@H](N)C(=O)O; pT = C[C@@H](OP(=O)(O)O)[C@H](N)C(=O)O; Lys(Me2) = CN(C)CCCC[C@H](N)C(=O)O; pS = N[C@@H](COP(=O)(O)O)C(=O)O; Lys(Me) = CNCCCC[C@H](N)C(=O)O; Me2a = not defined here; me2a = not defined here
T1: CaBdf1 BD2 (GST-tagged, wild-type) (Candida albicans (strain SC5314 / ATCC …, UniProt Q5A4W8))
T1 chain: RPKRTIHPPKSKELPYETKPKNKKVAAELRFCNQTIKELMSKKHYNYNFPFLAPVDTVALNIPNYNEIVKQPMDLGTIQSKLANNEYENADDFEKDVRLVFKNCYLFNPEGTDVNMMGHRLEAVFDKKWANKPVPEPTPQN

T2: CaBdf1 BD1 (GST-tagged, wild-type) (Candida albicans (strain SC5314 / ATCC …, UniProt Q5A4W8))
T2 chain: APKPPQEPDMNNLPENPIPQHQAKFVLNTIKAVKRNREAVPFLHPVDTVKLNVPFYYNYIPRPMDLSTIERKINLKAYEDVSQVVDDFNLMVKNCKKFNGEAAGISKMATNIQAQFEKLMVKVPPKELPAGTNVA


What was measured:
[1] = biological target: T1, CaBdf1 BD2 (GST-tagged, wild-type); assay: histone peptide array (Active Motif MODified), 1 uM GST-tagged bromodomain, anti-GST detection, normalized mean intensity
[2] = biological target: T2, CaBdf1 BD1 (GST-tagged, wild-type); assay: as above

| Binder | binding score [1] | binding score [2] |
| --- | --- | --- |
| ARTKQTA[Arg(Me2a)]K(Ac)[pS]TGGKAPRKQ | 0.00407 | 0.00399 |
| ARTKQTA[Arg(Me2a)]K(Me)[pS]TGGKAPRKQ | 0.00407 | 0.00326 |
| ARTKQTARKSTGGKAPRKQ (A Rme2a T Kac Q T A Rme2a K S T G G K A P R K Q) | 0.00592 | 0.00399 |
| ARTKQTARKSTGGKAPRKQ (A Rme2a T Kme2 Q T A Rme2s Kme1 S T G G K A P R K Q) | 0.0037 | 0.00399 |
| SGRGKGGKGLGKGGAKRHR (S G R G K G G K G L G K G G A Kac R H R) | 0.00296 | 0.0149 |
| A[Arg(Me2a)]T[Lys(Me3)]QTA[Arg(Me2a)][Lys(Me)]STGGKAPRKQ | 0.00851 | 0.00435 |
| A[Arg(Me2a)]T[Lys(Me2)]QTA[Arg(Me2s)][Lys(Me2)]STGGKAPRKQ | 0.00666 | 0.0029 |
| SGRGKGGKGLGKGGAKRHR (pS G Rme2s G K G G K G L G K G G A K R H R) | 0.00333 | 0.00508 |
| ARTKQTARKSTGGKAPRKQ (A R T K Q T A R K pS pT G G K A P R K Q) | 0.00407 | 0.00326 |
| AR(Me2a)[pT]K(Ac)QTARKSTGGKAPRKQ (reading uncertain) | 0.00111 | 0.00943 |
| ARTKQTARKSTGGKAPRKQ (A Rme2s T Kme3 Q T A R K S T G G K A P R K Q) | 0 | 0.00363 |
| PRKQLATKAAR(Me2s)K(Me)SAPATGG | 0.00296 | 0.00435 |
| ARTKQTARKSTGGKAPRKQ (A R T Kac Q T A Rme2s Kme3 S T G G K A P R K Q) | 0.00407 | 0.00689 |
| SGRGK(Ac)QGGK(Ac)ARAKAKSRSS | 0.0133 | 0.0283 |
| ARTKQTARKSTGGKAPRKQ (A R T Kac Q T A Rme2a Kme3 S T G G K A P R K Q) | 0.00592 | 0.0087 |
| ARTKQTARKSTGGKAPRKQ (A R T K Q T A Rme2s Kac S pT G G K A P R K Q) | 0.00407 | 0.00363 |
| ARTKQTARKSTGGKAPRKQ (A Rme2s T Kme1 Q T A R Kme3 S T G G K A P R K Q) | 0.00259 | 0.00326 |
| AR(me2a)TK(Ac)QTAR(me2a)K(Me)STGGKAPRKQ (reading uncertain) | 0.00888 | 0.00761 |
| R[Arg(Me2s)]K[Lys(Me)]K(Ac)R[Arg(Me2a)][Lys(Me2)]K[Lys(Me3)]R[Lys(Me)][Arg(Me2s)]KK(Ac)RK [background 02] | 0.00444 | 0.00906 |
| SGRGKGGKGLGKGGAKRHR (S G R G K G G Kac G L G Kac G G A Kac R H R) | 0.16 | 0.201 |
| ARTKQTARKSTGGKAPRKQ (A Rme2s T Kme1 Q T A Rme2s Kme2 S T G G K A P R K Q) | 0.00333 | 0.00254 |
| ARTKQTARKSTGGKAPRKQ (A Rme2a T Kac Q T A Rme2s Kme1 S T G G K A P R K Q) | 0.00296 | 0.00471 |
| PRKQLATKAAR(Me2s)K(Me)[pS]APATGG | 0.00259 | 0.00254 |
| PRKQLATKAAR(Me2a)K(Ac)SAPATGG (reading uncertain) | 0.00999 | 0.0189 |
| ARTKQTARKSTGGKAPRKQ (A Rme2a T Kme2 Q T A Rme2s Kac S T G G K A P R K Q) | 0.00333 | 0.0435 |

| Binder | binding score [1] | binding score [2] |
| --- | --- | --- |
| SGRGKQGGKARAKAKSRSS (not fully specified) | 0.00259 | 0.0087 |
| PRKQLATKAA[Arg(Me2a)]K(Me)SAPATGG | 0.00444 | 0.00399 |
| SGRGKGGKGLGKGGAKRHR (pS G Rme2a G K G G K G L G K G G A K R H R) | 0.00148 | 0.00471 |
| [pS]GRGK(Ac)QGGK(Ac)ARAK(Ac)AKSRSS | 0.00888 | 0.0515 |
| ARTKQTARKSTGGKAPRKQ (A R T K Q T A R Kac pS T G G K A P R K Q) | 0.00407 | 0.00435 |
| SGRGKGGKGLGKGGAKRHR (not fully specified; histone peptide post-translational modifications (acetyl, methyl, phospho, citrulline) listed in columns 4-7 and embedded in the sequence text; N-terminus free or acetylated in column 8) | 0.00999 | 0.00725 |
| ARTKQTARKSTGGKAPRKQ (A R T K Q T A R K S pT G G K A P R K Q) | 0.00037 | 0.00326 |
| [pS]GRGK(Ac)QGGKARAKAKSRSS | 0.0215 | 0.0156 |
| ARTKQTARKSTGGKAPRKQ (A Rme2s pT Kme2 Q T A R K S T G G K A P R K Q) | 0.00333 | 0.00363 |
| ARTKQTARKSTGGKAPRKQ (A R T Kme2 Q T A Rme2a Kme1 S T G G K A P R K Q) | 0.00666 | 0.0363 |
| AR(Me2s)TK(Ac)QTARKSTGGKAPRKQ | 0.00074 | 0.00616 |
| ARTKQTARKSTGGKAPRKQ (A Rme2a T Kme3 Q T A Rme2s Kac S T G G K A P R K Q) | 0.0037 | 0.0337 |
| ARTKQTARKSTGGKAPRKQ (A R pT Kme2 Q T A R K S T G G K A P R K Q) | 0.0037 | 0.00326 |
| PRKQLATKAAR(Me2s)K(Me3)[pS]APATGG | 0.00629 | 0.00109 |
| RKSAPATGGVKKPHRYRPG (R K S A P A T G G V Kme3 K P H R Y R P G) [H3 26-45] | 0.00777 | 0.00761 |
| ARTKQTARKSTGGKAPRKQ (A Rme2a T Kme3 Q T A Rme2a Kac S T G G K A P R K Q) | 0.00999 | 0.0392 |
| PRKQLATKAARK(Me)[pS]APATGG | 0.00333 | 0.0029 |
| ARTKQTARKSTGGKAPRKQ (A Rme2s T Kac Q T A Rme2s Kac S T G G K A P R K Q) | 0.00629 | 0.041 |
| ARTKQTA[Arg(Me2s)]K(Ac)[pS]TGGKAPRKQ | 0.00296 | 0.00363 |
| SGRGKGGKGLGKGGAKRHR (S G Rme2a G Kac G G Kac G L G K G G A K R H R) | 0.0411 | 0.0558 |
| ARTKQTARKSTGGKAPRKQ (A R T K Q T A R Kme1 S T G G K A P R K Q) | 0.00407 | 0.00435 |
| PRKQLATKAAR(Me2s)K(Ac)SAPATGG | 0.00814 | 0.0123 |
| PRKQLATKAARK(Me3)[pS]APATGG | 0.00074 | 0.0029 |
| SGRGKQGGKARAK(Ac)AKSRSS | 0.0141 | 0.0943 |
| PRKQLATKAARKSAPATGG (not fully specified) | 0.00111 | 0.00798 |

Reference: article PMC5454392, “Selective BET bromodomain inhibition as an antifungal therapeutic strategy” (Nature Communications, 2017)
